Literature values, collected in US9550786B2, “4-fluoropiperidine orexin receptor antagonists” (Merck Sharp & Dohme Corp., priority 2013, dated 2017).
Ends that are not written are not given here.

What was measured:
OX1R = biological target: T1, OX1R (Homo sapiens, UniProt O43613)
T1 sequence (O43613 1-425): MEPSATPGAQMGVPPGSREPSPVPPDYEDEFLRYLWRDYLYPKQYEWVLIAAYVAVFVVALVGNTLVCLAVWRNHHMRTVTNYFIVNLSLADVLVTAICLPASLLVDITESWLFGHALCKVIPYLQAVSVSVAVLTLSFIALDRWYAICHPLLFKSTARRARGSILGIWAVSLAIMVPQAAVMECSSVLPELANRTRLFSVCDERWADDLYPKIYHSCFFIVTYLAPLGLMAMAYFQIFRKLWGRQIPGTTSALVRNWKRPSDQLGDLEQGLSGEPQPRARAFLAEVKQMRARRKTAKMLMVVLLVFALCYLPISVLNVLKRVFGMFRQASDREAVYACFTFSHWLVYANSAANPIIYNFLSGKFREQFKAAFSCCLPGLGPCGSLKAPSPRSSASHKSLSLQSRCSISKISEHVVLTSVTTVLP

OX2R = biological target: T2, OX2R (Homo sapiens, UniProt O43614)
T2 sequence (O43614 1-444): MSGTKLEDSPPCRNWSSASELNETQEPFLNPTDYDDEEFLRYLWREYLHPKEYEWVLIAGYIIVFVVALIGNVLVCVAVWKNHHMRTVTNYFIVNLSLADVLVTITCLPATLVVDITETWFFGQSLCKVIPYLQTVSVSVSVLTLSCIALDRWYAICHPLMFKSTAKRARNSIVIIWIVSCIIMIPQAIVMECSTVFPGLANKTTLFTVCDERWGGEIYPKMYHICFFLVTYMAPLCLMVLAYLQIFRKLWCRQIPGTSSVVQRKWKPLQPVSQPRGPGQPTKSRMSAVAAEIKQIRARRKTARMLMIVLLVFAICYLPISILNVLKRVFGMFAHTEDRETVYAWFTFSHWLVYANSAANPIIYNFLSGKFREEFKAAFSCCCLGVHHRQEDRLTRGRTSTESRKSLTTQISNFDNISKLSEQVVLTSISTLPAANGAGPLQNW

| Substance | binding affinity toward OX1R (OX1R) | binding affinity toward OX2R (OX2R) |
| --- | --- | --- |
| orexin A (QPLPDCCRQKTCSCRLYELLHGAGNHAAGILTL; not fully specified (residue 1, C-terminus, bridges); cysteine pairing not given here; UniProt O43612 34-66, looked up) [OX-A] | 20 nM |  |
| orexin B [OX-B] | 420 nM | 36 nM |
